target: human GCGR (full-length glucagon receptor of 477 amino acids) (human, UniProt P47871 26-477); experiment: cell-based or functional assay
Sequence (P47871 26-477 limits assumed): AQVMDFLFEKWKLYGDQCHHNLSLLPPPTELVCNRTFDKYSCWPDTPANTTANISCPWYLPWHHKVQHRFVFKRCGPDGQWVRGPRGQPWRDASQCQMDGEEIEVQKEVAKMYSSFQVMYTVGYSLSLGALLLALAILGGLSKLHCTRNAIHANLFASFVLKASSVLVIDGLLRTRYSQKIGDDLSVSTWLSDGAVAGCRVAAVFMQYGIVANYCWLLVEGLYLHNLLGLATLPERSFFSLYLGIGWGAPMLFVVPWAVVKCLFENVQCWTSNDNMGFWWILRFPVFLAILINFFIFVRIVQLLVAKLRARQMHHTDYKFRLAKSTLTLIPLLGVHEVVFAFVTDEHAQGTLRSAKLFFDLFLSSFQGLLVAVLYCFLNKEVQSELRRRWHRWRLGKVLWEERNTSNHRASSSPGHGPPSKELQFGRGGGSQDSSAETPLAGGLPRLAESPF

Binder | IC50 [nM] | Imax [%]
hu1803-1 (antibody, human IgG4 S228P, kappa, F234A L235A, V domains shown) VH: EVQLVQSGAEVKKPGASVKVSCKASGYTFTDYWIEWVRQAPGQGLEWMGEILPGSTYTNYNEKFKGRVTMTRDTSTSTVYMELSSLRSEDTAVYYCARGLSTLMAVDYFDYWGQGTTVTVSS VL: DIQMTQSPSSLSASVGDRVTITCRASQDISNYLNWYQQKPGKAPKLLIYYSSTLHSGVPSRFSGSGSGTDFTLTISSLQPEDFATYYCQQTNIFPWTFGGGTKVEIKR | 191 | 91.8
hu1803-7 (antibody, human IgG4 S228P, kappa, F234A L235A, V domains shown) VH: EVQLVQSGAEVKKPGASVKVSCKASGYTFTDYWIEWVRQAPGQGLEWIGEILPGSTYTNYNEKFKGRATFTADTSTSTAYMELSSLRSEDTAVYYCSRGLSTLMAVDYFDYWGQGTTVTVSS VL: DIQMTQSPSSLSASVGDRVTITCRASQDISNYLNWYQQKPGGAVKLLIYYSSTLHSGVPSRFSGSGSGTDYTLTISSLQPEDFATYFCQQTNIFPWTFGGGTKVEIKR | 73 | 100
hu1803-4 (antibody, human IgG4 S228P, kappa, F234A L235A, V domains shown) VH: EVQLVQSGAEVKKPGASVKVSCKASGYTFTDYWIEWVKQAPGQGLEWIGEILPGSTYTNYNEKFKGRATFTADPSTSTAYMELSSLRSEDTAVYYCSRGLSTLMAVDYFDYWGQGTTVTVSS VL: DIQMTQSPSSLSASVGDRVTITCRASQDISNYLNWYQQKPGKAPKLLIYYSSTLHSGVPSRFSGSGSGTDFTLTISSLQPEDFATYYCQQTNIFPWTFGGGTKVEIKR | 140 | 100
hu1803-8 (antibody, human IgG4 S228P, kappa, F234A L235A, V domains shown) VH: EVQLVQSGAEVKKPGASVKVSCKASGYTFTDYWIEWVKQAPGQGLEWIGEILPGSTYTNYNEKFKGRATFTADPSTSTAYMELSSLRSEDTAVYYCSRGLSTLMAVDYFDYWGQGTTVTVSS VL: DIQMTQSPSSLSASVGDRVTITCRASQDISNYLNWYQQKPGGAVKLLIYYSSTLHSGVPSRFSGSGSGTDYTLTISSLQPEDFATYFCQQTNIFPWTFGGGTKVEIKR | 85.9 | 100
hu1803-2 (antibody, human IgG4 S228P, kappa, F234A L235A, V domains shown) VH: EVQLVQSGAEVKKPGASVKVSCKASGYTFTDYWIEWVRQAPGQGLEWMGEILPGSTYTNYNEKFKGRVTFTADTSTSTAYMELSSLRSEDTAVYYCARGLSTLMAVDYFDYWGQGTTVTVSS VL: DIQMTQSPSSLSASVGDRVTITCRASQDISNYLNWYQQKPGKAPKLLIYYSSTLHSGVPSRFSGSGSGTDFTLTISSLQPEDFATYYCQQTNIFPWTFGGGTKVEIKR | 137 | 98.5
hu1803-10 (antibody, human IgG4 S228P, kappa, F234A L235A, V domains shown) VH: EVQLVQSGAEVKKPGASVKVSCKASGYTFTDYWIEWVRQAPGQGLEWMGEILPGSTYTNYNEKFKGRVTFTADTSTSTAYMELSSLRSEDTAVYYCARGLSTLMAVDYFDYWGQGTTVTVSS VL: DIQMTQSPSSLSASVGDRVTITCRASQDISNYLNWYQQKPGKAVKLLIYYSSTLHSGVPSRFSGSGSGTDYTLTISSLQPEDFATYYCQQTNIFPWTFGGGTKVEIKR | 76.7 | 100
hu1803-3 (antibody, human IgG4 S228P, kappa, F234A L235A, V domains shown) VH: EVQLVQSGAEVKKPGASVKVSCKASGYTFTDYWIEWVRQAPGQGLEWIGEILPGSTYTNYNEKFKGRATFTADTSTSTAYMELSSLRSEDTAVYYCSRGLSTLMAVDYFDYWGQGTTVTVSS VL: DIQMTQSPSSLSASVGDRVTITCRASQDISNYLNWYQQKPGKAPKLLIYYSSTLHSGVPSRFSGSGSGTDFTLTISSLQPEDFATYYCQQTNIFPWTFGGGTKVEIKR | 110 | 96.7
hu1803-6 (antibody, human IgG4 S228P, kappa, F234A L235A, V domains shown) VH: EVQLVQSGAEVKKPGASVKVSCKASGYTFTDYWIEWVRQAPGQGLEWMGEILPGSTYTNYNEKFKGRVTFTADTSTSTAYMELSSLRSEDTAVYYCARGLSTLMAVDYFDYWGQGTTVTVSS VL: DIQMTQSPSSLSASVGDRVTITCRASQDISNYLNWYQQKPGGAVKLLIYYSSTLHSGVPSRFSGSGSGTDYTLTISSLQPEDFATYFCQQTNIFPWTFGGGTKVEIKR | 77.5 | 100
hu1803-5 (antibody, human IgG4 S228P, kappa, F234A L235A, V domains shown) VH: EVQLVQSGAEVKKPGASVKVSCKASGYTFTDYWIEWVRQAPGQGLEWMGEILPGSTYTNYNEKFKGRVTMTRDTSTSTVYMELSSLRSEDTAVYYCARGLSTLMAVDYFDYWGQGTTVTVSS VL: DIQMTQSPSSLSASVGDRVTITCRASQDISNYLNWYQQKPGGAVKLLIYYSSTLHSGVPSRFSGSGSGTDYTLTISSLQPEDFATYFCQQTNIFPWTFGGGTKVEIKR | 79 | 100

Other lines, results leading:

IC50 [nM] | Imax [%] | Binder
125 | 90.4 | hu1810-9 (antibody, human IgG4 S228P, kappa, F234A L235A, V domains shown) VH: QVQLVQSGAEVKKPGSSVKVSCKASGGTFSNYAISWVRQAPGQGLEWMGEIYPTSGNTYYNEKFKGRVTITADKSTSTAYMELSSLRSEDTAVYYCARGVITTVVSTDYFDYWGQGTLVTVSS VL: DIQMTQSPSSLSASVGDRVTITCRASLDISNYLNWYQLKPGKAVKLLIYYTSTLHSGVSSRFSGSGSGTEYTLTISSLQPEDFATYYCQQGNMVPYTFGGGTKVEIKR
95.6 | 97.4 | hu1810-10 (antibody, human IgG4 S228P, kappa, F234A L235A, V domains shown) VH: QVQLVQSGAEVKKPGSSVKVSCKASGGTFSNYAISWVRQAPGQGLEWMGEIYPTSGNTYYNEKFKGRVTITADRSTSTMYMELSSLRSEDTAVYYCASGVITTVVSTDYFDYWGQGTLVTVSS VL: DIQMTQSPSSLSASVGDRVTITCRASLDISNYLNWYQLKPGKAVKLLIYYTSTLHSGVSSRFSGSGSGTEYTLTISSLQPEDFATYYCQQGNMVPYTFGGGTKVEIKR
106 | 100 | hu1810-2 (antibody, human IgG4 S228P, kappa, F234A L235A, V domains shown) VH: QVQLVQSGAEVKKPGSSVKVSCKASGGTFSNYAISWVRQAPGQGLEWMGEIYPTSGNTYYNEKFKGRVTITADRSTSTMYMELSSLRSEDTAVYYCASGVITTVVSTDYFDYWGQGTLVTVSS VL: DIQMTQSPSSLSASVGDRVTITCRASLDISNYLNWYQQKPGKAPKLLIYYTSTLHSGVPSRFSGSGSGTDFTLTISSLQPEDFATYYCQQGNMVPYTFGGGTKVEIKR
88.7 | 100 | hu1803-11 (antibody, human IgG4 S228P, kappa, F234A L235A, V domains shown) VH: EVQLVQSGAEVKKPGASVKVSCKASGYTFTDYWIEWVRQAPGQGLEWIGEILPGSTYTNYNEKFKGRATFTADTSTSTAYMELSSLRSEDTAVYYCSRGLSTLMAVDYFDYWGQGTTVTVSS VL: DIQMTQSPSSLSASVGDRVTITCRASQDISNYLNWYQQKPGKAVKLLIYYSSTLHSGVPSRFSGSGSGTDYTLTISSLQPEDFATYYCQQTNIFPWTFGGGTKVEIKR
138 | 99.1 | hu1810-4 (antibody, human IgG4 S228P, kappa, F234A L235A, V domains shown) VH: QVQLVQSGAEVKKPGSSVKVSCKASGGTFSNYAISWVKQAPGQGLEWIGEIYPTSGNTYYNEKFKGKATLTADRSTSTMYMELSSLRSEDTAVYYCASGVITTVVSTDYFDYWGQGTLVTVSS VL: DIQMTQSPSSLSASVGDRVTITCRASLDISNYLNWYQQKPGKAPKLLIYYTSTLHSGVPSRFSGSGSGTDFTLTISSLQPEDFATYYCQQGNMVPYTFGGGTKVEIKR
157 | 100 | hu1810-6 (antibody, human IgG4 S228P, kappa, F234A L235A, V domains shown) VH: QVQLVQSGAEVKKPGSSVKVSCKASGGTFSNYAISWVRQAPGQGLEWMGEIYPTSGNTYYNEKFKGRVTITADRSTSTMYMELSSLRSEDTAVYYCASGVITTVVSTDYFDYWGQGTLVTVSS VL: DIQMTQSPSSLSASVGDRVTITCRASLDISNYLNWYQQKPGKAVKLLIYYTSTLHSGVSSRFSGSGSGTDYTLTISSLQPEDFATYYCQQGNMVPYTFGGGTKVEIKR
189 | 83.2 | hu1810-1 (antibody, human IgG4 S228P, kappa, F234A L235A, V domains shown) VH: QVQLVQSGAEVKKPGSSVKVSCKASGGTFSNYAISWVRQAPGQGLEWMGEIYPTSGNTYYNEKFKGRVTITADKSTSTAYMELSSLRSEDTAVYYCARGVITTVVSTDYFDYWGQGTLVTVSS VL: DIQMTQSPSSLSASVGDRVTITCRASLDISNYLNWYQQKPGKAPKLLIYYTSTLHSGVPSRFSGSGSGTDFTLTISSLQPEDFATYYCQQGNMVPYTFGGGTKVEIKR
119 | 100 | hu1810-7 (antibody, human IgG4 S228P, kappa, F234A L235A, V domains shown) VH: QVQLVQSGAEVKKPGSSVKVSCKASGGTFSNYAISWVRQAPGQGLEWIGEIYPTSGNTYYNEKFKGRATLTADRSTSTMYMELSSLRSEDTAVYYCASGVITTVVSTDYFDYWGQGTLVTVSS VL: DIQMTQSPSSLSASVGDRVTITCRASLDISNYLNWYQQKPGKAVKLLIYYTSTLHSGVSSRFSGSGSGTDYTLTISSLQPEDFATYYCQQGNMVPYTFGGGTKVEIKR
86.9 | 100 | hu1803-12 (antibody, human IgG4 S228P, kappa, F234A L235A, V domains shown) VH: EVQLVQSGAEVKKPGASVKVSCKASGYTFTDYWIEWVKQAPGQGLEWIGEILPGSTYTNYNEKFKGRATFTADPSTSTAYMELSSLRSEDTAVYYCSRGLSTLMAVDYFDYWGQGTTVTVSS VL: DIQMTQSPSSLSASVGDRVTITCRASQDISNYLNWYQQKPGKAVKLLIYYSSTLHSGVPSRFSGSGSGTDYTLTISSLQPEDFATYYCQQTNIFPWTFGGGTKVEIKR
192 | 95.4 | hu1810-3 (antibody, human IgG4 S228P, kappa, F234A L235A, V domains shown) VH: QVQLVQSGAEVKKPGSSVKVSCKASGGTFSNYAISWVRQAPGQGLEWIGEIYPTSGNTYYNEKFKGRATLTADRSTSTMYMELSSLRSEDTAVYYCASGVITTVVSTDYFDYWGQGTLVTVSS VL: DIQMTQSPSSLSASVGDRVTITCRASLDISNYLNWYQQKPGKAPKLLIYYTSTLHSGVPSRFSGSGSGTDFTLTISSLQPEDFATYYCQQGNMVPYTFGGGTKVEIKR
216 | 86.4 | hu1810-5 (antibody, human IgG4 S228P, kappa, F234A L235A, V domains shown) VH: QVQLVQSGAEVKKPGSSVKVSCKASGGTFSNYAISWVRQAPGQGLEWMGEIYPTSGNTYYNEKFKGRVTITADKSTSTAYMELSSLRSEDTAVYYCARGVITTVVSTDYFDYWGQGTLVTVSS VL: DIQMTQSPSSLSASVGDRVTITCRASLDISNYLNWYQQKPGKAVKLLIYYTSTLHSGVSSRFSGSGSGTDYTLTISSLQPEDFATYYCQQGNMVPYTFGGGTKVEIKR
133 | 100 | hu1810-8 (antibody, human IgG4 S228P, kappa, F234A L235A, V domains shown) VH: QVQLVQSGAEVKKPGSSVKVSCKASGGTFSNYAISWVKQAPGQGLEWIGEIYPTSGNTYYNEKFKGKATLTADRSTSTMYMELSSLRSEDTAVYYCASGVITTVVSTDYFDYWGQGTLVTVSS VL: DIQMTQSPSSLSASVGDRVTITCRASLDISNYLNWYQQKPGKAVKLLIYYTSTLHSGVSSRFSGSGSGTDYTLTISSLQPEDFATYYCQQGNMVPYTFGGGTKVEIKR
